How the values were obtained:
[1] = biological target: Eco RNAP β' subunit (in the opsEC) (E. coli, UniProt P0A8T7); experiment: cryo-EM structure
[2] = biological target: Eco RNAP β subunit (in the opsEC) (E. coli, UniProt P0A8V2); experiment: cryo-EM structure
Chain of Eco RNAP β subunit (in the opsEC) (P0A8V2 whole entry): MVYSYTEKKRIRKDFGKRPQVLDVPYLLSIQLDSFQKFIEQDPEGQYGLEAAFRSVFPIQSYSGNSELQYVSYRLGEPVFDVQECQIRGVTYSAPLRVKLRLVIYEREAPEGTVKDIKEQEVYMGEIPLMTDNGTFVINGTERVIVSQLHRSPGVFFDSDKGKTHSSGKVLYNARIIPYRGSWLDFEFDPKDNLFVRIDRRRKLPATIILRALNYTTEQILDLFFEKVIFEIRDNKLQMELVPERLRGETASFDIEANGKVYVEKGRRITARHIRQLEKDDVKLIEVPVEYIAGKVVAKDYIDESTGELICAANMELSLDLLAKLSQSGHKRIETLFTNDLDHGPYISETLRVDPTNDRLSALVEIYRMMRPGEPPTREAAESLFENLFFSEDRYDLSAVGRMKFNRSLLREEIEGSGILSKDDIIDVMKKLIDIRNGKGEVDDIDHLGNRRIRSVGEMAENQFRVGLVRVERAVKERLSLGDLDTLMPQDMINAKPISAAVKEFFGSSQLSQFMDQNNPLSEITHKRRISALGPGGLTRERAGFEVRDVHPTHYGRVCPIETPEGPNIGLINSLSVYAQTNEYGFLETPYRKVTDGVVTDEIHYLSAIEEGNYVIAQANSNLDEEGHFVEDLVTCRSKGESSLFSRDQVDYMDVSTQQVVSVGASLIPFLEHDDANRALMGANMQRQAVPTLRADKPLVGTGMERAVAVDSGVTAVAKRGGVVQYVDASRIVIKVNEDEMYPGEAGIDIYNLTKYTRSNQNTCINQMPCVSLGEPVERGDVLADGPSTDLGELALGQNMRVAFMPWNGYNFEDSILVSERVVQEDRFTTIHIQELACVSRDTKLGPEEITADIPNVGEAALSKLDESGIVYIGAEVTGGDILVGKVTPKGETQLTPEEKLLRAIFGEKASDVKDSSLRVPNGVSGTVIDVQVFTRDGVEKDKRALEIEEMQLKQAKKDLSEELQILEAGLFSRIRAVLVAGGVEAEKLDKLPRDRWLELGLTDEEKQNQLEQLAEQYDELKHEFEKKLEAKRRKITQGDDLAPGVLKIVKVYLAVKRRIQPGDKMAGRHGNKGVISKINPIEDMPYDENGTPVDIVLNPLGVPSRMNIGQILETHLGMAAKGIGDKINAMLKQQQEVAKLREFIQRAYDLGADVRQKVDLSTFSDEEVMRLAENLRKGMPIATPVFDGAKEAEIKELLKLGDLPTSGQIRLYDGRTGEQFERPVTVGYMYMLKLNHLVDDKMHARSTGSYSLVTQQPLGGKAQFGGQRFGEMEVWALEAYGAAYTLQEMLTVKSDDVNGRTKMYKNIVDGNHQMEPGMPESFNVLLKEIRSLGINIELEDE

Chain of Eco RNAP β' subunit (in the opsEC) (P0A8T7 whole entry): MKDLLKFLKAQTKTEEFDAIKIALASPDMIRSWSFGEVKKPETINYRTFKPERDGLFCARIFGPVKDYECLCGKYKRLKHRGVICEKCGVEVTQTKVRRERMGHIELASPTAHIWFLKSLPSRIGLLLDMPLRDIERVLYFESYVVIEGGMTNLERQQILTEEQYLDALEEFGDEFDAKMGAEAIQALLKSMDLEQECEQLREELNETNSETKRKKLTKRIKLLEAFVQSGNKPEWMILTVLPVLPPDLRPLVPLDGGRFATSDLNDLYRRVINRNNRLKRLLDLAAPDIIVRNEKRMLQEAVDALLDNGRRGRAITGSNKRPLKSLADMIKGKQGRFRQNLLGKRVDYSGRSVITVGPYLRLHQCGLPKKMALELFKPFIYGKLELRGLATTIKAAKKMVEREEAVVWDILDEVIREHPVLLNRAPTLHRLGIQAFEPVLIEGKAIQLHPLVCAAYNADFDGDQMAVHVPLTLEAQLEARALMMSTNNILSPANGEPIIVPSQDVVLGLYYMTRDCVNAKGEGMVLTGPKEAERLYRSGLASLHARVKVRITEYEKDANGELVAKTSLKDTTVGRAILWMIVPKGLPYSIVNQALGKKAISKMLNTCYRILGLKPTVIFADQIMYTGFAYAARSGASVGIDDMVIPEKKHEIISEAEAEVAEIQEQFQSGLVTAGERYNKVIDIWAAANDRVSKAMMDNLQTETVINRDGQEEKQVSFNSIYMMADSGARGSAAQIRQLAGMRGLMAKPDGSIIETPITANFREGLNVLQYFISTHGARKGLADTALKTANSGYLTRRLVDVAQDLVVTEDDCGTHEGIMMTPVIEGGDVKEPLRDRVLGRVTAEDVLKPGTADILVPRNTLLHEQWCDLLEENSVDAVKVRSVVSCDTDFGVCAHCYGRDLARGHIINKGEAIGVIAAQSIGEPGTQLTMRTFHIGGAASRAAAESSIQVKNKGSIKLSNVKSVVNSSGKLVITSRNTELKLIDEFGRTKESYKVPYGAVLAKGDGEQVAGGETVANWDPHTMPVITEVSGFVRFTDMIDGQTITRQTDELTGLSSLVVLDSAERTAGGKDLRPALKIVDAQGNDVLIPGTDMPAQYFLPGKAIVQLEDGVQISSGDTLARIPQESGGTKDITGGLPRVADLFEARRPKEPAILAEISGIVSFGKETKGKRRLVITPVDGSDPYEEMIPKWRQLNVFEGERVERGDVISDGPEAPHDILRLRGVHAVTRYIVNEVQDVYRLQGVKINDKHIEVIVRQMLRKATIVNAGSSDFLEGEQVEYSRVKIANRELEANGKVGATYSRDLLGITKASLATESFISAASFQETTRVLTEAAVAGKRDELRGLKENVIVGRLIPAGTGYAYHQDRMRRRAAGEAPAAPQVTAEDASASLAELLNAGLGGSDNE

B1: wild-type Eco RfaH, full length (natural protein)
chain: MQSWYLLYCKRGQLQRAQEHLERQAVNCLAPMITLEKIVRGKRTAVSEPLFPNYLFVEFDPEVIHTTTINATRGVSHFVRFGASPAIVPSAVIHQLSVYKPKDIVDPATPYPGDKVIITEGAFEGFQAIFTEPDGEARSMLLLNLINKEIKHSVKNTEFRKL
- binding result [1]: binds
- binding result [2]: binds

— doi:10.1101/324400 (bioRxiv, 2018)
